From paper PMC2171419 (The Journal of Cell Biology, 2005)
Changes are numbered by the printed parent chain. Blank lines part the entries; values can stand above or below the binder they belong to.

Key:
GST–14-3-3ζ Ser184A = target: T1, GST–14-3-3ζ Ser184A (UniProt P63104 1-245, Ser184A); assay: pull-down
T1 sequence (looked up): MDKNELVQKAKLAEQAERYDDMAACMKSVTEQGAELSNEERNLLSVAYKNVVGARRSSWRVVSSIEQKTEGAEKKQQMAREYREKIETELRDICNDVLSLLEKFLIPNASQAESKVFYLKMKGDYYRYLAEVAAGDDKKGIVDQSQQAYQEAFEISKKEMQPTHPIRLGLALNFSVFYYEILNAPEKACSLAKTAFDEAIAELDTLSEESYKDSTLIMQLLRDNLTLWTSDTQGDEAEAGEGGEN

GST–14-3-3ζ (WT) = target: T2, GST–14-3-3ζ (WT) (UniProt P63104 1-245); assay: pull-down
T2 sequence (looked up): T1 sequence (looked up) with A184S

binding result (GST–14-3-3ζ Ser184A): binds
B1: His-tagged Bad wild type, phosphorylated by CA-Akt (natural protein, mouse, UniProt Q61337 1-204, looked up)
chain: MGTPKQPSLAPAHALGLRKSDPGIRSLGSDAGGRRWRPAAQSMFQIPEFEPSEQEDASATDRGLGPSLTEDQPGPYLAPGLLGSNIHQQGRAATNSHHGGAGAMETRSRHSSYPAGTEEDEGMEEELSPFRGRSRSAPPNLWAAQRYGRELRRMSDEFEGSFKGLPRPKSAGTATQMRQSAGWTRIIQSWWDRNLGKGGSTPSQ
modifications: phosphoserine at 136 (by CA-Akt in vitro)

binding result (GST–14-3-3ζ (WT)): binds
B2: His-tagged Bad Ser128A-Thr201A, phosphorylated by active Akt (natural protein, mouse, UniProt Q61337 1-204, looked up)
chain: B1 chain with S128A, T201A
modifications: phosphoserine at 136 (by CA-Akt in vitro)

binding result (GST–14-3-3ζ (WT)): binds
B3: His-tagged Bad Thr201A, phosphorylated by active Akt (natural protein, mouse, UniProt Q61337 1-204, looked up)
chain: B1 chain with T201A
modifications: phosphoserine at 136 (by CA-Akt in vitro)

binding result (GST–14-3-3ζ (WT)): binds
B4: His-tagged Bad Ser128A, phosphorylated by active Akt (natural protein, mouse, UniProt Q61337 1-204, looked up)
chain: B1 chain with S128A
modifications: phosphoserine at 136 (by CA-Akt in vitro)
